# T1: unlabeled VEGF165a homodimer purified in the same manner (with CDN N-terminal appendage)
# T1 chain: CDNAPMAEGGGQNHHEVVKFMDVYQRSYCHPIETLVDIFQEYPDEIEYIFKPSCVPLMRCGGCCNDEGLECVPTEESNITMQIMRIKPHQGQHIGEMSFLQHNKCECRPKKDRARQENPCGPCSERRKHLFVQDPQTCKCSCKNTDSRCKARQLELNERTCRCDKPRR
# B1: unlabeled PDGF-BB homodimer purified in the same manner (with CDN N-terminal appendage) (ligand)
# chain: CDNSLGSLTIAEPAMIAECKTRTEVFEISRRLIDRTNANFLVWPPCVEVQRCSGCCNNRNVQCRPTQVQLRPVQVRKIEIVRKKPIFKKATVTLEDHLACKCETVAAARPVT
# notes: three-amino acid N-terminal appendage left after HaloTEV cleavage of the modified TEV site EDLYFQC; platelet-derived growth factor subunit B (PDGF-B); Disulfide-linked homodimer; also called PDFG-B; source: HEK293T, transiently expressed as secreted HaloTag fusion, purified (HaloLink beads, HaloTEV release); not shown: HaloTag, N-terminal, cleaved
# B2: unlabeled VEGF165a homodimer purified in the same manner (with CDN N-terminal appendage) (ligand)
# chain: CDNAPMAEGGGQNHHEVVKFMDVYQRSYCHPIETLVDIFQEYPDEIEYIFKPSCVPLMRCGGCCNDEGLECVPTEESNITMQIMRIKPHQGQHIGEMSFLQHNKCECRPKKDRARQENPCGPCSERRKHLFVQDPQTCKCSCKNTDSRCKARQLELNERTCRCDKPRR
# modifications: disulfide-linked homodimer; unlabeled; mature VEGF165 limits by convention (191-aa AUG-initiated isoform precursor, signal 1-26) / disulfide-linked homodimer; unlabeled; mature VEGF165 limits by …
# Legend:
# [1] = target: the molecule itself; assay: SDS-PAGE with and without reducing agent; purified growth factors resolved by SDS-PAGE in the presence and absence of 100 mM dithiothreitol (DTT)
# [2] = target: T1, unlabeled VEGF165a homodimer purified …; assay: as above; conditions: both partners purified
Binder,stoichiometry N [1],stoichiometry N [2]
B1,2,
B2,,2
